{
  "source": "paper doi:10.1101/2023.10.05.561114",
  "about": "“Conditional Requirement for Dimerization of the Membrane-Binding Module of BTK” (bioRxiv, 2023)",
  "target": "the molecule itself",
  "test": "fluorescence correlation spectroscopy (FCS); protein adsorbed on supported lipid bilayers with 96% DOPC and 4% PIP3; two-dimensional diffusion rate measured against surface density; fit to a 2D diffusion model; imaging buffer HBSS with 0.01% w/v beta-casein, with scavenging mixture",
  "data": [
    {"protein": "BTK PH–TH module (residues 1–171), wild type, with C-terminal mNeonGreen (domain or fragment, human, UniProt Q06187 1-171, looked up, Bruton's tyrosine kinase (BTK), human, pleckstrin-homology and tec-homology domains (PH–TH module), residues 1–171; ZnCl2 was added during expression; also called PH–TH^WT; source: E. coli BL21-DE3, purified (HisTrap, SUMO protease cleavage, second HisTrap, Superdex 75); not shown: His6, N-terminal, cleaved; SUMO, N-terminal, cleaved; mNeonGreen, C-terminal, kept) MAAVILESIFLKRSQQKKKTSPLNFKKRLFLLTVHKLSYYEYDFERGRRGSKKGSIDVEKITCVETVVPEKNPPPERQIPRRGEESSEMEQISIIERFPYPFQVVYDEGPLYVFSPTEELRKRWIHQLKNVIRYNSDLVQKYHPCFWIDGQYLCCSQTAKNAMGCQILENR", "values": [
      {"measurement": "binding result", "value": "binds"}
    ]}
  ]
}
